Like-named read-outs stand apart in the source and are kept apart here.
Tests used:
[1] = molecular target: human γδ TCR (Vγ9Vδ2) on human Vδ2+ γδ T cells (human) (UniProt A0JD36); assay: flow cytometry, monomeric VHH-hIgG1 Fc fusion on expanded human Vδ2+ γδ T cells, anti-human Fc A647, MFI
[2] = molecular target: human γδ TCR (Vγ9Vδ2) on human Vδ2+ γδ T cells (human) (UniProt A0JD36); assay: as above; remark: listed apart in the source
[3] = molecular target: human γδ TCR (Vγ9Vδ2) on human Vδ2+ γδ T cells (human) (UniProt A0JD36); assay: flow cytometry on expanded human Vδ2+ γδ T cells, nonlinear fit; from data in FIG. 6K
[4] = molecular target: human γδ TCR (Vγ9Vδ2) on human Vδ2+ γδ T cells (human) (UniProt A0JD36); assay: flow cytometry on expanded human Vδ2+ γδ T cells, nonlinear fit; from data in FIG. 6J

EC50 (read off the curve) [1]: 3 nM
EC50 (read off the curve) [2]: 6 nM
Kd [3]: 2.96 nM
Kd [4]: 6.54 nM
B1: hu1D7v158 VHH-hIgG1 Fc-NNT (monomeric) (VHH)
VHH: EVQLLESGGGEVQPGGSLRLSCVASRGKISQYRMGWYRQAPGKQRELVAHISNTGDAAEYVAPVKGRFTISRDNAKNALYLQMNSLRAEDTAVYKCNTVEDILAWGQGTLVTVEP

From patent US20250109203A1
